Results reported in patent publication US20210047426A1.

Tests used:
[1] = target: Human CD3ε/δ (soluble recombinant human CD3) (human) (UniProt P07766); test: BIACORE surface plasmon resonance, recombinant human CD3 directly immobilized, 1:1 binding fit
[2] = target: Cynomolgus CD3ε/δ (soluble recombinant cynomolgus monkey CD3) (cynomolgus monkey) (UniProt Q95LI5); test: SPR (BIAcore 3000), antigen immobilized on the chip, DART-A injected, 1:1 Langmuir fit, mean of 3 experiments
[3] = target: Human CD3ε/δ (soluble recombinant human CD3) (human) (UniProt P07766); test: as above
[4] = target: Cynomolgus CD3ε/δ (soluble recombinant cynomolgus monkey CD3) (cynomolgus monkey) (UniProt Q95LI5); test: BIACORE surface plasmon resonance, recombinant cynomolgus monkey CD3 directly immobilized, 1:1 binding fit

Cynomolgus CD3ε/δ (soluble recombinant cynomolgus monkey CD3) (cynomolgus monkey), sequence (Q95LI5 22-117, stated change not applied, chain 1 of 2): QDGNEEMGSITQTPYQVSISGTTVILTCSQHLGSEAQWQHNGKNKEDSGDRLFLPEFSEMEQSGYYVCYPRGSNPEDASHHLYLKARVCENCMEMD
Cynomolgus CD3ε/δ (soluble recombinant cynomolgus monkey CD3) (cynomolgus monkey), sequence (Q95LI8 22-105, stated change not applied, chain 2 of 2, further chain): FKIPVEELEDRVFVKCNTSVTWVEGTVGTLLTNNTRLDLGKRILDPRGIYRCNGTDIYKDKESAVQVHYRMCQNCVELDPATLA
Human CD3ε/δ (soluble recombinant human CD3) (human), sequence (P07766 23-126, stated change not applied, chain 1 of 2): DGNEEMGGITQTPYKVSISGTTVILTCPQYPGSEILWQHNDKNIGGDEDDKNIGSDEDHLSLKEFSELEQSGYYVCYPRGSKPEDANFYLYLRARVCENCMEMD
Human CD3ε/δ (soluble recombinant human CD3) (human), sequence (P04234 22-105, stated change not applied, chain 2 of 2, further chain): as the sequence (Q95LI8 22-105, stated change not applied, chain 2 of 2, further chain) above, with V5I, K15N, V20I, T32S, N33D, N34I, A64T, N74S, L83V counted along it

B1: Sequence-Optimized CD123 × CD3 Bi-Specific Diabody (DART-A) (bispecific antibody)
chain 1: QAVVTQEPSLTVSPGGTVTLTCRSSTGAVTTSNYANWVQQKPGQAPRGLIGGTNKRAPWTPARFSGSLLGGKAALTITGAQAEDEADYYCALWYSNLWVFGGGTKLTVLGGGGSGGGGEVQLVQSGAELKKPGASVKVSCKASGYTFTDYYMKWVRQAPGQGLEWIGDIIPSNGATFYNQKFKGRVTITVDKSTSTAYMELSSLRSEDTAVYYCARSHLLRASWFAYWGQGTLVTVSSGGCGGGEVAALEKEVAALEKEVAALEKEVAALEK
chain 2: DFVMTQSPDSLAVSLGERVTMSCKSSQSLLNSGNQKNYLTWYQQKPGQPPKLLIYWASTRESGVPDRFSGSGSGTDFTLTISSLQAEDVAVYYCQNDYSYPYTFGQGTKLEIKGGGSGGGGEVQLVESGGGLVQPGGSLRLSCAASGFTFSTYAMNWVRQAPGKGLEWVGRIRSKYNNYATYYADSVKDRFTISRDDSKNSLYLQMNSLKTEDTAVYYCVRHGNFGNSYVSWFAYWGQGTLVTVSSGGCGGGKVAALKEKVAALKEKVAALKEKVAALKE
- Kd [1]: 12.3 nM
- Kd [2]: 9.2 nM
- koff [2]: 0.005 s⁻¹
- kon [2]: 550000 M⁻¹ s⁻¹
- Kd [3]: 9 nM
- koff [3]: 0.005 s⁻¹
- kon [3]: 570000 M⁻¹ s⁻¹
- Kd [4]: 9 nM
